Reference: US20090117124A1 (Pfizer, published 2009)

T1: human IgA (Sigma, Cat. No. I2636) (human)
T1 chain: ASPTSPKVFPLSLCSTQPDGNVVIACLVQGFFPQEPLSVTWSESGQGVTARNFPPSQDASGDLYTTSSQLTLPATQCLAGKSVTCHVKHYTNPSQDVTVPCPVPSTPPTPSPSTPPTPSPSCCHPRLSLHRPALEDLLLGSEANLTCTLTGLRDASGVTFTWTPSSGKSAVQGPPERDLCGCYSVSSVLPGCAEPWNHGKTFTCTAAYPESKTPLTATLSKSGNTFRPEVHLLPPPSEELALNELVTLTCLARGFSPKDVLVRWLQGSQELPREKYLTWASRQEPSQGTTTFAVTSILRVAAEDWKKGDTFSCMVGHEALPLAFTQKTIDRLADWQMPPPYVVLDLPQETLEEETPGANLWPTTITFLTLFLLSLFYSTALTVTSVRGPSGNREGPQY

B1: 6.605.1 (recombinant) (antibody, human IgG2, kappa, V domains shown)
VH: QVHLVQSGAEVKMPGASVKVSCKASGYTFTSYGISWVRQAPGQGLEWMGWISAYNGNTNYAQKLQGRITMTTDTSTSTAYMDLRSLRSDDTAVYYCARDGDYYDPFDYWGQGTLVTVSS
VL: DIQMTQSPSSLSASVGDRVTITCRTSQSISNWLNWYQQKPGKAPKLLIYGASTLKSGVPSRFSGSESGTDFTLTISSLQPEDFATYYCQQSYSTPPTFGQGTKVEIKR
notes: Human IgG2 kappa; leader omitted; also called recombinant 6.605.1
B2: 6.605.1 Hc-H3Q, M13K, D82E Lc-T25A, T53S (antibody, human IgG2, kappa, V domains shown)
VH: QVQLVQSGAEVKKPGASVKVSCKASGYTFTSYGISWVRQAPGQGLEWMGWISAYNGNTNYAQKLQGRITMTTDTSTSTAYMELRSLRSDDTAVYYCARDGDYYDPFDYWGQGTLVTVSS
VL: DIQMTQSPSSLSASVGDRVTITCRASQSISNWLNWYQQKPGKAPKLLIYGASSLKSGVPSRFSGSESGTDFTLTISSLQPEDFATYYCQQSYSTPPTFGQGTKVEIKR
notes: Human IgG2 kappa; leader omitted; also called 6.605.1 (H3Q, M13K, D82E-T25A, T53S); 6.605.1 QKE/AS
B3: 5.396.1 (recombinant) (antibody, human IgG2, kappa, V domains shown)
VH: QVQLQQWGAGLLKPSETLSLTCAVYGGSFSGYYWSWIRQPPGKGLEWIGEIHHSGSTNYNPSLKSRVTISVDTSKNQFSLKLSSVTAADTAVYYCARDNWNDSFYYYYGMDVWGQGTTVTVSS
VL: DIQMTQSPSSLSASVGDRVTITCRASQGISNHLAWFQQKPGKAPKSLIYAASSLQSGVPSKFSGSGSGTDFTLTISSLQPEDFATYYCQQYNRHPFTFGPGTKVDIKR
notes: Fully human IgG2 kappa, expressed in 293 Freestyle cells; also called recombinant 5.396.1
B4: 5.396.1 Hc-S103N Lc-K61R (antibody, human IgG2, kappa, V domains shown)
VH: QVQLQQWGAGLLKPSETLSLTCAVYGGSFSGYYWSWIRQPPGKGLEWIGEIHHSGSTNYNPSLKSRVTISVDTSKNQFSLKLSSVTAADTAVYYCARDNWNDNFYYYYGMDVWGQGTTVTVSS
VL: DIQMTQSPSSLSASVGDRVTITCRASQGISNHLAWFQQKPGKAPKSLIYAASSLQSGVPSRFSGSGSGTDFTLTISSLQPEDFATYYCQQYNRHPFTFGPGTKVDIKR
notes: Human IgG2 kappa; leader omitted; also called 5.396.1 (S103N/K61R); 5.396.1 S103N/K61R

Legend:
[1] = molecular target: T2, cynomolgus monkey IgE (in cynomolgus serum, Harlan Sera-Lab Ltd) (cynomolgus monkey); test: capture ELISA, Test 1, Cyno 5
T2 construct: Serum was the source of IgE; eight serum samples; also called cynomolgus IgE; Cyno 1 to Cyno 8 serum samples
Experimental: (§1) Wells were washed once with 150 μL/well wash buffer (0.05% Tween-20, Sigma, Cat. No. P7949/TBS) then blocked with 150 μL/well 1% BSA (Sigma, Cat. No. A7030) in TBS for 2 hours at room temperature. Wells were washed twice with 150 μL wash buffer. 50 μL human (in-house donors) or cynomolgus serum (Harlan Sera-Lab Ltd, Loughborough) was added from neat to at least 1:16 dilution in 1% BSA/0.05% Tween-20/TBS diluent buffer. […] Wells were incubated for 2 hours at 25° C. before washing (3×150 μL wash buffer). […] Wells were incubated for 1 hour at 25° C. then washed (3×150 μL wash buffer). Streptavidin-HRP (Amersham Bioscience, Cat. No. RPN 1231) diluted 1:1000 in diluent buffer was added to all wells and incubated for 45 minutes at room temperature. Wells were washed (3×150 […] wash buffer). 50 μL OPD (Dako, Cat. No. S2045) was added to all wells and the color allowed to develop for 10 minutes before stopping the reaction with 50 μl 0.6M H₂SO₄ and the absorbance measured at 490 nm.

[2] = molecular target: T2, cynomolgus monkey IgE (in cynomolgus …); test: capture ELISA, Test 1, Cyno 6
Experimental: as §1

[3] = molecular target: T2, cynomolgus monkey IgE (in cynomolgus …); test: capture ELISA, Test 1, Cyno 7
Experimental: as §1

[4] = molecular target: T2, cynomolgus monkey IgE (in cynomolgus …); test: capture ELISA, Test 1, Cyno 4
Experimental: as §1

[5] = molecular target: T3, human IgG3 (Biodesign, Cat. No. A50186H) (human); test: ELISA on coated immunoglobulin
T3 construct: Bought immunoglobulin coated on the plate
Experimental: (§2) Wells were washed 3× with 150 μL wash buffer (0.05% Tween-20 (Sigma, Cat. No. P7949)/PBS) then blocked with 150 μL/well blocking buffer (2.5% BSA (Sigma, Cat. No. A7030)/PBS) for 2 hours at room temperature. Wells were washed 3× with 150 μL wash buffer/well. […] Antibodies were diluted in diluent buffer (PBS/1% BSA/0.05% Tween-20) and this was added to blank control wells (duplicate wells for each secondary antibody used). Antibodies were incubated for 2 hours at room temperature. Wells were washed 3× with 150 μL wash buffer/well. Binding of control antibodies to immunoglobulin was detected with anti-mouse IgG-HRP conjugate (Sigma, Cat. No. A4416) diluted 1:8000 in diluent buffer. 50 μL/well was added to control antibody and blank wells. Wells were incubated for 1 hour at room temperature, then washed 3× with 150 μL wash buffer/well. 50 μl OPD (Dako, Cat. No. […] Wells were incubated for 1 hour at room temperature then washed 3× with 150 μL wash buffer/well. Streptavidin-HRP (Amersham Bioscience, Cat. No. RPN 1231) diluted 1:2000 in diluent buffer was added to all wells and incubated for 45 minutes at room temperature. Wells were washed (3×150 μL wash buffer).

[6] = molecular target: T1, human IgA (Sigma, Cat. No. I2636); test: ELISA on coated immunoglobulin
Experimental: as §2

[7] = molecular target: T4, human IgG1 (Biodesign, Cat. No. A50183H) (human); test: ELISA on coated immunoglobulin
T4 construct: Bought immunoglobulin coated on the plate
Experimental: as §2

[8] = molecular target: T2, cynomolgus monkey IgE (in cynomolgus …); test: capture ELISA, Test 1, Cyno 1
Experimental: as §1

[9] = molecular target: T2, cynomolgus monkey IgE (in cynomolgus …); test: capture ELISA, Test 1, Cyno 2
Experimental: as §1

[10] = molecular target: T2, cynomolgus monkey IgE (in cynomolgus …); test: capture ELISA, Test 1, Cyno 3
Experimental: as §1

[11] = molecular target: T2, cynomolgus monkey IgE (in cynomolgus …); test: capture ELISA, Test 2, Cyno 8
Experimental: as §1

[12] = molecular target: T2, cynomolgus monkey IgE (in cynomolgus …); test: capture ELISA, Test 2, Cyno 2
Experimental: as §1

[13] = molecular target: T2, cynomolgus monkey IgE (in cynomolgus …); test: capture ELISA, Test 2, Cyno 4
Experimental: as §1

[14] = molecular target: T2, cynomolgus monkey IgE (in cynomolgus …); test: capture ELISA, Test 2, Cyno 3
Experimental: as §1

[15] = molecular target: T2, cynomolgus monkey IgE (in cynomolgus …); test: capture ELISA, Test 2, Cyno 7
Experimental: as §1

[16] = molecular target: T2, cynomolgus monkey IgE (in cynomolgus …); test: capture ELISA, Test 2, Cyno 5
Experimental: as §1

[17] = molecular target: T2, cynomolgus monkey IgE (in cynomolgus …); test: capture ELISA, Test 2, Cyno 1
Experimental: as §1

[18] = molecular target: T2, cynomolgus monkey IgE (in cynomolgus …); test: capture ELISA, Test 2, Cyno 6
Experimental: as §1

Binder | IgE concentration detected [1] | IgE concentration detected [2] | IgE concentration detected [3] | IgE concentration detected [4] | A290 nm [5] | A290 nm [6] | A290 nm [7] | IgE concentration detected [8] | IgE concentration detected [9] | IgE concentration detected [10] | IgE concentration detected [11] | IgE concentration detected [12] | IgE concentration detected [13] | IgE concentration detected [14] | IgE concentration detected [15] | IgE concentration detected [16] | IgE concentration detected [17] | IgE concentration detected [18]
B1 | 140 ng/mL | 0 ng/mL | 0 ng/mL | 0 ng/mL | 0.05 A290 nm | 0.04 A290 nm | 0.07 A290 nm | 120 ng/mL | 91 ng/mL | 107 ng/mL |  |  |  |  |  |  |  | 
B2 | 173 ng/mL |  | 0 ng/mL | 0 ng/mL | 0.04 A290 nm | 0.04 A290 nm | 0.07 A290 nm | 133 ng/mL | 103 ng/mL | 122 ng/mL |  |  |  |  |  |  |  | 
B3 | 37 ng/mL | 3 ng/mL | 0 ng/mL | 0 ng/mL | 0.05 A290 nm | 0.04 A290 nm | 0.07 A290 nm | 30 ng/mL | 0 ng/mL |  |  |  |  |  |  |  |  | 
B4 | 57 ng/mL | 0 ng/mL | 0 ng/mL | 0 ng/mL | 0.05 A290 nm | 0.04 A290 nm | 0.08 A290 nm | 41 ng/mL | 0 ng/mL | 39 ng/mL | 0 ng/mL | 39 ng/mL | 0 ng/mL | 53 ng/mL | 0 ng/mL | 102 ng/mL | 57 ng/mL | 0 ng/mL
